Assays:
[1] = Example 8: plasma chemistry markers in hTFR^KI/+ knock in mice; assay type: in vivo, mouse; settings: plasma day 15;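 note: plasma levels read on an automated clinical chemistry analyzer after three doses of conjugated modified oligonucleotide, with a PBS-treated group as negative control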
From the text: (§1) Each mouse received an intravenous (i.v.) administration or subcutaneous (s.c.) administration of conjugated modified oligonucleotide for a total of 3 doses (on Days 1, 5, and 9) at doses indicated in the table below. […] A group of 4 mice received PBS as a negative control.
To evaluate the effect of modified oligonucleotides on liver and kidney function, plasma levels of albumin (ALB), alanine aminotransferase (ALT), aspartate aminotransferase (AST), blood urea nitrogen (BUN), total bilirubin (TBIL), total Protein (PROT), Creatine (CREAT), and Creatine Kinase (CK) were measured on the day the mice were sacrificed (day 15) using an automated clinical chemistry analyzer (Hitachi Olympus AU400c, Melville, NY).

[2] = Example 8: hematology assays / blood cell counts in hTFR^KI/+ knock in mice; assay type: in vivo, mouse; settings: for Mean corpuscular volume (MCV) / hematocrit (HCT) / hemoglobin (HGB) / mean corpuscular hemoglobin (MCH) / mean corpuscular hemoglobin concentration (MCHC) / red blood cell (RBC) count / white blood cell (WBC) count: blood day 15; for BAS (basophils) / LYM (lymphocytes) / MON (monocytes) / NEU (neutrophils) / PLT (platelets) / RETI (reticulocytes): day 15;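 for all read-outs here: mice given conjugated modified oligonucleotide, three doses total, blood cell counts measured at sacrifice, PBS-treated group of 4 mice serves as negative control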
From the text: as §1
Blood obtained from mice on the day the mice were sacrificed (day 15) were sent to IDEXX BioResearch for measurement of blood cell counts. Counts taken include red blood cell (RBC) count, white blood cell (WBC) count, hemoglobin (HGB), hematocrit (HCT), Mean corpuscular volume (MCV), mean corpuscular hemoglobin (MCH), and mean corpuscularhemoglobin concentration (MCHC). Individual white blood cell counts, such as that of monocytes (MON), neutrophils (NEU), lymphocytes (LYM), eosinophils (EOS), basophils (BAS), reticulocytes, and platelets were evaluated.

[3] = system: mouse DMPK RNA; assay: Example 8: mouse DMPK RNA and ED50 in tissues of hTFR^KI/+ knock in mice, multiple dose (RTPCR, day 15); assay type: in vivo;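 note: conjugated oligonucleotide given as three doses to hTFR^KI/+ knock-in mice, tissues taken at day 15 and mouse DMPK RNA quantified by real-time RT-PCR against PBS-treated controls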
Method: The activity and tolerability of modified oligonucleotides conjugated to CD71 bicycle ligands were tested in hTFR^KI/+ knock in mice (described herein above).
as §1
The mice were sacrificed six days post final administration (on day 15), and RNA was extracted from various muscle tissues (including quadriceps (Quad), tibialis anterior (TA), diaphragm, triceps, heart, gastrocnemius (gastroc)), aorta, sciatic nerve, and liver tissue for quantitative real time RTPCR analysis to measure amount of mouse DMPK RNA using mouse primer probe set RTS3181 (described herein above).

[4] = Example 8: body and organ weights in hTFR^KI/+ knock in mice; assay type: in vivo, mouse; settings: for Organ weight Kidney / Organ weight Liver / Organ weight Spleen: day 15
Method: as §1
Liver, kidney, and spleen weights were measured on the day the mice were sacrificed (day 15), and the average organ weights for each group are presented in the tables below.

[5] = reduction of mouse DMPK RNA, i.v., 3 doses on Days 1, 5, 9

1590463 BCY17896 (CPXDAYLGCXSYCX; not fully specified; non-natural residues; cyclised or stapled)
Creatine (CREAT) ([1]; i.v. 1 mg/kg on Days 1, 5, 9): 0.16 mg/dL
alanine aminotransferase (ALT) ([1]; i.v. 1 mg/kg on Days 1, 5, 9): 40 U/L
albumin (ALB) ([1]; i.v. 1 mg/kg on Days 1, 5, 9): 2.82 g/dL
aspartate aminotransferase (AST) ([1]; i.v. 1 mg/kg on Days 1, 5, 9): 111 U/L
blood urea nitrogen (BUN) ([1]; i.v. 1 mg/kg on Days 1, 5, 9): 24 mg/dL
total Protein (PROT) ([1]; i.v. 1 mg/kg on Days 1, 5, 9): 4.83 g/dL
total bilirubin (TBIL) ([1]; i.v. 1 mg/kg on Days 1, 5, 9): 0.12 mg/dL
Creatine (CREAT) ([1]; i.v. 10 mg/kg on Days 1, 5, 9): 0.16 mg/dL
alanine aminotransferase (ALT) ([1]; i.v. 10 mg/kg on Days 1, 5, 9): 34 U/L
albumin (ALB) ([1]; i.v. 10 mg/kg on Days 1, 5, 9): 2.70 g/dL
aspartate aminotransferase (AST) ([1]; i.v. 10 mg/kg on Days 1, 5, 9): 119 U/L
blood urea nitrogen (BUN) ([1]; i.v. 10 mg/kg on Days 1, 5, 9): 22 mg/dL
total Protein (PROT) ([1]; i.v. 10 mg/kg on Days 1, 5, 9): 4.57 g/dL
total bilirubin (TBIL) ([1]; i.v. 10 mg/kg on Days 1, 5, 9): 0.11 mg/dL
Mean corpuscular volume (MCV) ([2]; i.v. 1 mg/kg on Days 1, 5, 9): 40 fL
hematocrit (HCT) ([2]; i.v. 1 mg/kg on Days 1, 5, 9): 47%
hemoglobin (HGB) ([2]; i.v. 1 mg/kg on Days 1, 5, 9): 15 g/dL
mean corpuscular hemoglobin (MCH) ([2]; i.v. 1 mg/kg on Days 1, 5, 9): 13 pg
mean corpuscular hemoglobin concentration (MCHC) ([2]; i.v. 1 mg/kg on Days 1, 5, 9): 32 g/dL
red blood cell (RBC) count ([2]; i.v. 1 mg/kg on Days 1, 5, 9): 12 10^12/L
white blood cell (WBC) count ([2]; i.v. 1 mg/kg on Days 1, 5, 9): 8 10^3/μL
Mean corpuscular volume (MCV) ([2]; i.v. 10 mg/kg on Days 1, 5, 9): 41 fL
hematocrit (HCT) ([2]; i.v. 10 mg/kg on Days 1, 5, 9): 47%
hemoglobin (HGB) ([2]; i.v. 10 mg/kg on Days 1, 5, 9): 15 g/dL
mean corpuscular hemoglobin (MCH) ([2]; i.v. 10 mg/kg on Days 1, 5, 9): 13 pg
mean corpuscular hemoglobin concentration (MCHC) ([2]; i.v. 10 mg/kg on Days 1, 5, 9): 31 g/dL
red blood cell (RBC) count ([2]; i.v. 10 mg/kg on Days 1, 5, 9): 11 10^12/L
white blood cell (WBC) count ([2]; i.v. 10 mg/kg on Days 1, 5, 9): 9 10^3/μL
Diaphragm mouse DMPK RNA (% control) ([3]; i.v. 1 mg/kg on Days 1, 5, 9): 60 % control
Gastrocnemius mouse DMPK RNA (% control) ([3]; i.v. 1 mg/kg on Days 1, 5, 9): 75 % control
Heart mouse DMPK RNA (% control) ([3]; i.v. 1 mg/kg on Days 1, 5, 9): 81 % control
Quadriceps mouse DMPK RNA (% control) ([3]; i.v. 1 mg/kg on Days 1, 5, 9): 74 % control
Tibialis Anterior mouse DMPK RNA (% control) ([3]; i.v. 1 mg/kg on Days 1, 5, 9): 84 % control
Diaphragm mouse DMPK RNA (% control) ([3]; i.v. 10 mg/kg on Days 1, 5, 9): 16 % control
Gastrocnemius mouse DMPK RNA (% control) ([3]; i.v. 10 mg/kg on Days 1, 5, 9): 28 % control
Heart mouse DMPK RNA (% control) ([3]; i.v. 10 mg/kg on Days 1, 5, 9): 56 % control
Quadriceps mouse DMPK RNA (% control) ([3]; i.v. 10 mg/kg on Days 1, 5, 9): 23 % control
Tibialis Anterior mouse DMPK RNA (% control) ([3]; i.v. 10 mg/kg on Days 1, 5, 9): 28 % control

1590463 BCY17901 (CPXDAYLGCXSYCEPWX; not fully specified; non-natural residues; cyclised or stapled)
Creatine (CREAT) ([1]; i.v. 1 mg/kg on Days 1, 5, 9): 0.15 mg/dL
alanine aminotransferase (ALT) ([1]; i.v. 1 mg/kg on Days 1, 5, 9): 65 U/L
albumin (ALB) ([1]; i.v. 1 mg/kg on Days 1, 5, 9): 2.76 g/dL
aspartate aminotransferase (AST) ([1]; i.v. 1 mg/kg on Days 1, 5, 9): 107 U/L
blood urea nitrogen (BUN) ([1]; i.v. 1 mg/kg on Days 1, 5, 9): 23 mg/dL
total Protein (PROT) ([1]; i.v. 1 mg/kg on Days 1, 5, 9): 4.73 g/dL
total bilirubin (TBIL) ([1]; i.v. 1 mg/kg on Days 1, 5, 9): 0.13 mg/dL
Creatine (CREAT) ([1]; i.v. 10 mg/kg on Days 1, 5, 9): 0.15 mg/dL
alanine aminotransferase (ALT) ([1]; i.v. 10 mg/kg on Days 1, 5, 9): 35 U/L
albumin (ALB) ([1]; i.v. 10 mg/kg on Days 1, 5, 9): 2.63 g/dL
aspartate aminotransferase (AST) ([1]; i.v. 10 mg/kg on Days 1, 5, 9): 98 U/L
blood urea nitrogen (BUN) ([1]; i.v. 10 mg/kg on Days 1, 5, 9): 23 mg/dL
total Protein (PROT) ([1]; i.v. 10 mg/kg on Days 1, 5, 9): 4.53 g/dL
total bilirubin (TBIL) ([1]; i.v. 10 mg/kg on Days 1, 5, 9): 0.14 mg/dL
Mean corpuscular volume (MCV) ([2]; i.v. 1 mg/kg on Days 1, 5, 9): 40 fL
hematocrit (HCT) ([2]; i.v. 1 mg/kg on Days 1, 5, 9): 48%
hemoglobin (HGB) ([2]; i.v. 1 mg/kg on Days 1, 5, 9): 15 g/dL
mean corpuscular hemoglobin (MCH) ([2]; i.v. 1 mg/kg on Days 1, 5, 9): 13 pg
mean corpuscular hemoglobin concentration (MCHC) ([2]; i.v. 1 mg/kg on Days 1, 5, 9): 31 g/dL
red blood cell (RBC) count ([2]; i.v. 1 mg/kg on Days 1, 5, 9): 12 10^12/L
white blood cell (WBC) count ([2]; i.v. 1 mg/kg on Days 1, 5, 9): 7 10^3/μL
Mean corpuscular volume (MCV) ([2]; i.v. 10 mg/kg on Days 1, 5, 9): 41 fL
hematocrit (HCT) ([2]; i.v. 10 mg/kg on Days 1, 5, 9): 47%
hemoglobin (HGB) ([2]; i.v. 10 mg/kg on Days 1, 5, 9): 15 g/dL
mean corpuscular hemoglobin (MCH) ([2]; i.v. 10 mg/kg on Days 1, 5, 9): 13 pg
mean corpuscular hemoglobin concentration (MCHC) ([2]; i.v. 10 mg/kg on Days 1, 5, 9): 31 g/dL
red blood cell (RBC) count ([2]; i.v. 10 mg/kg on Days 1, 5, 9): 11 10^12/L
white blood cell (WBC) count ([2]; i.v. 10 mg/kg on Days 1, 5, 9): 9 10^3/μL
Diaphragm mouse DMPK RNA (% control) ([3]; i.v. 1 mg/kg on Days 1, 5, 9): 57 % control
Gastrocnemius mouse DMPK RNA (% control) ([3]; i.v. 1 mg/kg on Days 1, 5, 9): 74 % control
Heart mouse DMPK RNA (% control) ([3]; i.v. 1 mg/kg on Days 1, 5, 9): 75 % control
Quadriceps mouse DMPK RNA (% control) ([3]; i.v. 1 mg/kg on Days 1, 5, 9): 79 % control
Tibialis Anterior mouse DMPK RNA (% control) ([3]; i.v. 1 mg/kg on Days 1, 5, 9): 71 % control
Diaphragm mouse DMPK RNA (% control) ([3]; i.v. 10 mg/kg on Days 1, 5, 9): 14 % control
Gastrocnemius mouse DMPK RNA (% control) ([3]; i.v. 10 mg/kg on Days 1, 5, 9): 15 % control
Heart mouse DMPK RNA (% control) ([3]; i.v. 10 mg/kg on Days 1, 5, 9): 44 % control
Quadriceps mouse DMPK RNA (% control) ([3]; i.v. 10 mg/kg on Days 1, 5, 9): 14 % control
Tibialis Anterior mouse DMPK RNA (% control) ([3]; i.v. 10 mg/kg on Days 1, 5, 9): 14 % control

1590463-BCY17896: modified oligonucleotide 1590463 conjugated to CD71 bicycle ligand BCY17896 through a BCN linker (CPXDAYLGCXSYCX; not fully specified; non-natural residues; cyclised or stapled)
Body weight Day 1 ([4]; 1 mg/kg i.v.): 27 g
Body weight Day 15 ([4]; 1 mg/kg i.v.): 28 g
Organ weight Kidney ([4]; 1 mg/kg i.v.): 0.35 g
Organ weight Liver ([4]; 1 mg/kg i.v.): 1.49 g
Organ weight Spleen ([4]; 1 mg/kg i.v.): 0.07 g
Body weight Day 1 ([4]; 10 mg/kg i.v.): 24 g
Body weight Day 15 ([4]; 10 mg/kg i.v.): 25 g
Organ weight Kidney ([4]; 10 mg/kg i.v.): 0.33 g
Organ weight Liver ([4]; 10 mg/kg i.v.): 1.39 g
Organ weight Spleen ([4]; 10 mg/kg i.v.): 0.07 g
BAS (basophils) ([2]; 1 mg/kg i.v.): 0.07%
LYM (lymphocytes) ([2]; 1 mg/kg i.v.): 85%
MON (monocytes) ([2]; 1 mg/kg i.v.): 5%
NEU (neutrophils) ([2]; 1 mg/kg i.v.): 8%
PLT (platelets) ([2]; 1 mg/kg i.v.): 1170 10^9/L
RETI (reticulocytes) ([2]; 1 mg/kg i.v.): 439 10^3/μL
BAS (basophils) ([2]; 10 mg/kg i.v.): 0.07%
LYM (lymphocytes) ([2]; 10 mg/kg i.v.): 84%
MON (monocytes) ([2]; 10 mg/kg i.v.): 6%
NEU (neutrophils) ([2]; 10 mg/kg i.v.): 8%
PLT (platelets) ([2]; 10 mg/kg i.v.): 1087 10^9/L
RETI (reticulocytes) ([2]; 10 mg/kg i.v.): 389 10^3/μL
Diaphragm ED50 [3, 5]: 1.4 mg/kg
Gastrocnemius ED50 [3, 5]: 2.9 mg/kg
Quadriceps ED50 [3, 5]: 2.6 mg/kg
Tibialis Anterior ED50 [3, 5]: 3.3 mg/kg
